Like-named read-outs stand apart in the source and are kept apart here.

Assay [1] concerns the target stabilized microtubules polymerised from cow brain tubulin (cow (purified from cow brains)) (UniProt Q6B856). The assay can be described thus: TIRF microscopy of GFP-protein decoration of immobilized microtubules.
Assay [2] deals with full length human GFP-CLASP2α (human) (UniProt O75122). The assay can be described thus: optical trap rupture force.
For assay [3] the target is unchanged. As to the kind of experiment: TIRF microscopy of microtubules tethered to protein clusters on DNA origami.
Assay [4] addresses stabilized microtubules polymerised from cow brain tubulin (cow (purified from cow brains)) (UniProt Q6B856). The assay can be described thus: TIRF microscopy of GFP-protein decoration of immobilized microtubules. This is another data set of the same source.

As for “full length human GFP-CLASP2α (from UniProt O75122-3 1-1515) (natural protein)”, in assay [1], the Kd is 0.5 nM and the end brightness is 594 a.u.

On to “stabilized microtubules polymerised from cow brain tubulin (from UniProt Q6B856 1-445) (complex)”, for which, in assay [2], the pulling force at 50% survival of the attachment amounted to 14 pN and the pulling force withstood without rupture (13 of 39 microtubules) was greater than 15.2 pN. In addition, the time for which half of the microtubules stay attached by their end in assay [3] amounted to 4 h.

B1: GFP-L-TOG2-S (domain or fragment)
chain: KVPAPKTSGNPANSARKPGSAGGPKVGAGASKEGGAGAVDEDDFIKAFTDVPSIQIYSSRELEETLNKIREILSDDKHDWDQRANALKKIRSLLVAGAAQYDCFFQHLRLLDGALKLSAKDLRSQVVREACITVAHLSTVLGNKFDHGAEAIVPTLFNLVPNSAKVMATSGCAAIRFIIRHTHVPRLIPLITSNCTSKSVPVRRRSFEFLDLLLQEWQTHSLERHAAVLVETIKKGIHDADAEARVEARKTYMGLRNHFPGEAETLYNSLEPSYQKSLQTYLKSSGSVASLPQSDRSSSSSQESLNRPFSSKWSTANPSTVAGRVSAGSSKASSLPGSLQRSRSDIDVNAAAGAKAHHAAGQSVRSGRLGAGALNAGSYASLEDTSDKLDGTASEDGRVRAKLSAPLAGMGNAKADSRGRSRTKMVSQSQPGSRSGSPGRVLTTTALSTVSSGVQRVLVNSASAQKRSKIPRSQGCSREASPSRLSVARSSRIPRPSVSQGCSREASRESSRDTSPVRSFQPLGPGYGISQSS
Molecule B1 registered an end brightness in assay [4] of 757 a.u.

Source of the values: publication doi:10.1101/2022.04.25.489454.
